In US20190062448A1, “ANTI-CD39 ANTIBODIES, COMPOSITIONS COMPRISING ANTI-CD39 ANTIBODIES AND METHODS OF USING ANTI-CD39 ANTIBODIES” (Tizona Therapeutics, priority 2017, published 2019):
Entries after “also recorded” stand apart in the source; their conditions may differ.

What was measured:
[1] = target: T1, human CD39 endogenously expressed on MEL-28 cells (Homo sapiens, UniProt P49961); experiment: EnzChek kinetic Pi detection assay on MEL-28 cells (initial velocity, Michaelis-Menten); type: cell-based; settings: ARL 200 micromolar, isotype control 7.7
T1 construct: MEL-28 cells (35,000 MEL-28 cells/well) endogenously expressing human CD39; endogenous in cells; host or cells: MEL-28
T1 sequence (P49961 1-510): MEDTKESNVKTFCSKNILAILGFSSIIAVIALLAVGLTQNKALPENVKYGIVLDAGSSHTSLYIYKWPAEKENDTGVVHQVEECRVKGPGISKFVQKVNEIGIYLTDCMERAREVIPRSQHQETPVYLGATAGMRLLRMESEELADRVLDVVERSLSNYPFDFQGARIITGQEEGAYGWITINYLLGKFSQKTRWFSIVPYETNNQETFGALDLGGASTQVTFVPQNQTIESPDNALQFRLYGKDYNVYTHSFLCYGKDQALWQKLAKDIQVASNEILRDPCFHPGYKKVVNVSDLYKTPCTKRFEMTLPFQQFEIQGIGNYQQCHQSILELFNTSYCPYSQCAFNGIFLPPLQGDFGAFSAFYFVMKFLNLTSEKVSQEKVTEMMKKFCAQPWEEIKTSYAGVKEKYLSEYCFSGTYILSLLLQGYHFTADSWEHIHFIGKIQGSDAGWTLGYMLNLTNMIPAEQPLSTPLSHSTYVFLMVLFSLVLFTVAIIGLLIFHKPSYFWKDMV
Description: Anti-CD39 antibodies (100 nanomolar), isotype control antibody (100 nanomolar), or ARL (200 micromolar) were incubated with MEL-28 cells endogenously expressing human CD39 for 2 hours. ATP was then added and the rate of ATP hydrolysis to Pi by CD39 was monitored using the EnzChek kinetic Pi detection assay. The initial enzyme velocity, ν0, was determined from the linear region of Pi vs. time curve over the first 15 minutes post-ATP addition. Each value is the mean of 3 replicates.
Anti-CD39 antibodies or isotype control antibody (100 nanomolar final concentration) were incubated with MEL-28 cells (35,000 MEL-28 cells/well) endogenously expressing human CD39 at 37° C. for 20 minutes in the presence of EnzChek reagents (PNP & MESG). Immediately following the addition of ATP (final concentrations ranging from 0-450 micromolar), the rate of ATP hydrolysis to free phosphate (Pi) by CD39 was monitored over time at Abs360 nm using SpectraMax i3x plate reader. The initial enzyme velocity, ν0, was determined from the linear region of Pi vs. time curve for each ATP concentration. The plot of ν0 vs. [ATP] was curve fit using non-linear regression of the Michaelis-Menten kinetic model.

[2] = target: T2, CD39 expressed on MEL-28 cells (Homo sapiens, UniProt P49961); experiment: Cellular CD39 ATPase inhibition (Malachite Green), Example 15; type: cell-based; settings: 10-25 μg/ml antibody; 50 μM ATP; vs isotype control
T2 construct: endogenous in cells; host or cells: MEL-28
T2 sequence (P49961 1-510): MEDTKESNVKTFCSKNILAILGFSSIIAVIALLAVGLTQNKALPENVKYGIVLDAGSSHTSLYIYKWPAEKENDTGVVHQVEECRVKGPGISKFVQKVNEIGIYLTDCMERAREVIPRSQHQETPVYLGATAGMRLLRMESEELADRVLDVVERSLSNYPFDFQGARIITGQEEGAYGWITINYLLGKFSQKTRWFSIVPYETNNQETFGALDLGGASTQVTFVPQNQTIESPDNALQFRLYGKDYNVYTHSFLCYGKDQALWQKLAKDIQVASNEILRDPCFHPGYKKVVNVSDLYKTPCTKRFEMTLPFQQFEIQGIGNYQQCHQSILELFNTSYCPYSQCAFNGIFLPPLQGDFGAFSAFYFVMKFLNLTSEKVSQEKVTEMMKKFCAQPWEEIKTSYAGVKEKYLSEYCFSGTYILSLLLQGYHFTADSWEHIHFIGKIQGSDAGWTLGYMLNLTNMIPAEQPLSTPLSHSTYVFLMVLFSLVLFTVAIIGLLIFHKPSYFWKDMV
Description: Indicated cells were incubated in assay buffer with 10-25 μg/ml antibody, 100 μM POM-1 or 100 μM ARL for 30 min at 37° C. 5% CO2. ATP was added to a final concentration of 50 μM and the incubation continued for 15 min. Supernatant was evaluated for free phosphate (Pi) using the Malachite Green Phosphate Detection kit. Palivizumab is used as an isotype control and POM-1 and ARL are non-specific small molecule inhibitors of CD39.
(§1) Also, an 18 hour incubation was used with the antibody or isotype control. Finally, an additional 30 second baseline dip in buffer between antigen capture and dipping into a second competitor antibody for 300 seconds was used.

hCD39-ECD [3] = target: T3, hCD39-ECD (Homo sapiens, UniProt P49961); experiment: Epitope binning / competition for hCD39-ECD binding by Bio-Layer Interferometry
T3 sequence (P49961 38-478 limits assumed): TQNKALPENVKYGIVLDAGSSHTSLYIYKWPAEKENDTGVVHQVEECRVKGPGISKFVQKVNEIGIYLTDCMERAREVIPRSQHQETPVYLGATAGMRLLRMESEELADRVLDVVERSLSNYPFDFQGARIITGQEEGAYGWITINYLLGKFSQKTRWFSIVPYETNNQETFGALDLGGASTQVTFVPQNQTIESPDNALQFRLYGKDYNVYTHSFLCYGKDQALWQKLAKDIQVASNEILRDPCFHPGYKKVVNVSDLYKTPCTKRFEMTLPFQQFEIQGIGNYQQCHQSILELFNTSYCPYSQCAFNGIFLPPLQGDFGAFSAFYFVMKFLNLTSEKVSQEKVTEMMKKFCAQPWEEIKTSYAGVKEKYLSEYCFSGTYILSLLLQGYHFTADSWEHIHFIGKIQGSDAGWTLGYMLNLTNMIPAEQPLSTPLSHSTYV
Text: A1 antibody was immobilized onto an Anti-Mouse IgG Fc Capture (AMC) biosensor (ForteBio). Association of hCD39-ECD was then monitored for 180 seconds via Bio-Layer Interferometry (BLI) using the Octet system (ForteBio), at which point the biosensor was dipped into competitor antibody and monitored for another 180 seconds.
The methods are the same as set forth above except that instead of A1, the representative antibody was immobilized using anti-human IgG Fc Capture (AHC) biosensor.
as §1

hCD39-ECD [4] = target: T3, hCD39-ECD; experiment: rhCD39-ECD ATPase inhibition (Malachite Green free phosphate); type: biochemical; design: purchased R&D Systems; settings: 50 μg/ml antibody; 10 μM ATP; vs isotype or buffer controls
Description: 0.04-3.3 nM rhCD39-ECD (R&D Systems) was incubated with buffer, 50 μg/ml antibody or 100 μM POM-1 (Alpha Aesar) for 1 hr at 37° C. in assay buffer (25 mM Tris pH 7.5, 5 mM CaCl2) at which point ATP (Sigma) was spiked in to a final concentration of 10 μM, and the reaction further incubated for 30 min 37° C. Production of free phosphate (Pi) was subsequently measured using Malachite Green Phosphate Detection kit (R&D Systems).
as §1

Molecule	ATP hydrolysis rate (initial velocity) [1] [micromolar Pi per minute]	inhibition of ATPase activity of CD39 expressed on MEL-28 cells [2]	competition / binning with other anti-CD39 antibody bin groups for ECD binding (hCD39-ECD [3])	competition with antibody A1 for binding to hCD39 ECD (hCD39-ECD [3]; A1 immobilized, ECD captured, then competitor antibody)	inhibition of ATPase activity of soluble hCD39 ECD (μM Pi) (hCD39-ECD [4])
CCN(CC)c1ncnc2c1ncn2[C@@H]1O[C@H](COP(=O)(O)OP(=O)(O)C(Br)(Br)P(=O)(O)O)[C@@H](O)[C@H]1O [ARL]	1.2				
27571: anti-human CD39 antibody inhibiting soluble ECD and cellular CD39 (antibody, V domains shown, Synthetic VH, 27571; Synthetic VL, 27571) VH: QVQLVQSGAEVKKPGSSVKASCKASGGTFSSYAISWVRQAPGQGLEWMGSIIPIFGTANYAQKFRGRVTITADESTSTTYMELSSLRSEDTAVYYCARESGGYRDHRLDVWGQGTMVTVSS VL: EIVMTQSPATLSVSPGERATLSCRASQSVGSNLAWYQQKPGQAPRLLIYGASTRATGIPARFSGSGSGTEFTLTISSLQSEDFAVYYCQQYLIWPLTFGGGTKVEIK		inhibit the hydrolysis of CD39 expressed on MEL-28 cells	do not compete	does not block binding; also recorded: do not compete	able to inhibit the hydrolysis of ATP by hCD39 ECD
